The values that follow come from article PMC7300195 (2020).

Holding throughout (test): BLI
Assay [1] concerns the target hexameric NiV G: two G ectodomain headgroups linked by a foldon trimerization domain via short glycine linkers (Nipah virus (Malaysia) | ).
Another assay concerns the target Stalk G.
For assay [2], the target named is NiV G ferritin 24-mer nanoparticle: NiV G ectodomain residues 172-602 linked to the C-terminus of fe (Nipah virus (Malaysia), UniProt Q9IH62 172-602).
A further assay addresses Mono G.
Assay [3] has as its target NiV G trimer: NiV G head domain residues 172-602 coupled to an N-terminal foldon domain ( | Nipah virus (Malaysia), UniProt Q9IH62 172-602).

B1: m102.4 monoclonal antibody (HeV G-specific antibody), human IgG1/kappa (antibody, V domains shown)
VH: EVQVIQSGADVKKPGSSVKVSCKSSGGTFSKYAINWVRQAPGQGLEWMGGIIPILGIANYAQKFQGRVTITTDESTSTAYMELSSLRSEDTAVYYCARGWGREQLAPHPSQYYYYYYGMDVWGQGTTVTVSS
VL: EIVMTQSPGTLSLAPGERATLSCWASQSVRNNYLAWYQQKPGQAPRLVIYNGSTRATGIPDRFSGSGSGTDFTLTISRLDPEDFAVYYCQQYGNSRRVTFGGGTKVEIK
One may read the Kd as a measure of binding affinity in units of concentration. High values mean lower affinity, low ones higher affinity. Broadly, the koff is the first-order rate constant of dissociation. Higher therefore signals a short-lived complex. In the case of B1, the Kd in assay [1] was 86.2 nM; with Stalk G it was 112 nM; in assay [2], 17.8 nM; with Mono G, 402 nM; in assay [3], 153 nM. Besides, the koff in assay [1] amounted to 0.0596 s⁻¹; in the assay with Stalk G, 0.0849 s⁻¹; in assay [2] it was 0.0279 s⁻¹; with Mono G it was 0.131 s⁻¹; in assay [3], 0.0857 s⁻¹.
